Assay: yeast display, Sf9 membrane polyspecificity reagent, FACS + sequencing; frameworks hold sequencing errors
Procedure, shortened: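 Sorting gates, low and high (top ~1%), were placed on anti-HA fluorescence to track expression and on streptavidin fluorescence to track reagent binding. A clone's polyreactivity label is taken from the gate it came out of. The reagent was 10% biotinylated, detergent-solubilized Sf9 membrane, applied for 1 hour at 4 °C to galactose-induced yeast display cells.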

Sequence	polyreactivity (PSR sort gate)
KVQLVESGGGLVQAGGSLRISCAASGIIFLGYAMGWYRQAPGKERELVAGISSRGGSTYYADSVKGRFTISRDNAKNTVYLQMNSLKPADSAVYYCAAVSRGSGRDYWGQGTQVTVSS	high polyreactivity
KVQLVESGGGLVQAGGSLRISCAASGITFNPYAMGWYRQAAGKERELVAAISRRGGSTNYADSVKGRFTISRDNAKNTVYLQMNSLKPEDTAVYDCNRDYPIGYRHDPVYYWGQGTQVTVSS	high polyreactivity
KVQLVESGGGLVQAGGSLRLSCAASGFIFYRNTMGWYRQAPGKEREFVAAIRWRGGSTYYADSVKGRFTISRDNAKNTVYLQMNSLKPEDTAVYYCAADTRPGYSGFEYWGQGTQVTVSS	high polyreactivity
KVQLVESGGGLVQAGGSLRLSCAASGFTFEGYAMGWYRQAPGKEMELVAAISSNGGRTYYADSVKGRFTISRDNAKNTVYLQMNSLKPEDTAVYYCNARRAYSGPDYDYYHGRRYDYWGQGTQVTVSS	low polyreactivity
KVQLVESGGGLVQAGGSLRLSCAASGGIFYYYAMGWYRQAPGKERELVAAISSGGGTNYADSVKGRFTISRDNAKNTVYLQMNSVKPEDTAVYYCAADQGRDTGYDYWGQGTQVTVSS	low polyreactivity
KVQLVESGGGLVQAGGSLRLSCAASGLIFPAYTIGWYRQAPGKEREMVAAISRSGGSTYYADSVKGRFTISRDNAKYTVYLEMNSLKPEDTALYYCAAGYPGYDSYYKFYYWGQGTQVTVSS	high polyreactivity
KVQLVESGGGLVQAGGSLRLSCAASGLILRRYAMGWSRQAPGKEREFVARITWSGSRTYYADSVKGRFTISRDYGKNTVYLQMKSLKPEDSAFYYCAAVGRLARRDYWGQGTQVSVSS	high polyreactivity
KVQLVESGGGLVQAGGSLRLSCAASGLTFSFYAMGWYRQAPGKERELVAAITYSGDSTYYADSVKGRFTISRDNAKNTVYLQLNSLKPEDTAVYYCAAYVYQTPHSLHIYEYWGQGTQVTVSS	low polyreactivity
KVQLVESGGGLVQAGGSLRLSCAASGRIFYYNAMGWYRQAPGKERELVAVITGGGSTNYADSVKGRFTISRDNAKNTVYLQMNSLKPEDTAGYYCAARRAWGTKYHGYDYWGQGTQVNVSS	low polyreactivity
KVQLVESGGGLVQAGGSLRLSCAASGSIFTYYAMGWDRQAPGKERELVAAISIGGRTDYADSVKGRFTISRDNAKNTVSLQMNSLKPEDTAVYYCVAKGHLDSGGYEYYYWRQGTQVTVSS	low polyreactivity
KVQLVESGGGLVQAGGSLRLSCAASGSTFSLYAMGWYRQAPGKERELVASIRWSGGRTYYADSVKGRFTISRDNAKNTVYLQMKSLKPEDTAVYYCAAAWRYGYGYWGQGTQVTVSS	high polyreactivity
KVQLVESGGGLVQAGGSLRLSCAASGYIVSYYDMGWYRQAPGKERELVAAITAGVAGTYYADSVKGRLTISRDNAKNSVYLQMNSLTPEDTAVFYCAADRYITTVVRMYYSGQGTQVTVSS	low polyreactivity
KVQLVESGGGLVQAGGSLRLSCADSGIFRYYAMGWYRQAPGKEREFVAAMTRGGSTNYADSVKGRFTISRDNAKNSVYLQMNSLKPEDTEVYYCARDGYREFDWGQGTQVTVSS	high polyreactivity
KVQLVESGGGLVQAGGSLRLSCPASGITFYRYVMGWYRQAPGTERELVAAISSGGRTYYADSVKGRFTISRDNAKNTVYLQMNSLKPEDNAVYYCNRAAFQTRYESWGQGTQVTVSS	high polyreactivity
KVQLVESGRGLVQAGGSLLLICAASGSTFVDYAMGWYRQAPGKERELVAGINVSGGSTYYSDYVKGSFTISRDNSNNPVYLQMNSLNPEDTAVYYCAKVVSNRLALPAWDYNYWGQGTKVTVSS	low polyreactivity
KVQLVESGVGLVQAGGSLRLSCAPSGSIFKYYAMGWYRQAPGKERELVAAITDRGSSTYYADSVKGRFTISRDNAKTTVYLQMNSLKPEDTAVYYCAAETYVCIYWPYVKYYYWGQGTQVNVSS	high polyreactivity
KVQLVESVGGLVQAGGSLRLSCAASGRIFGVNAMGWYRQAPGKERELVAAIRSGDSTNYADSVKGRFTISRDNAKNTVYLQMNSLKPEDTAVYYCATDLYFDLRYDYWGQGTQVTVSS	low polyreactivity
KVQVVESGGGFVQAGGSLGLSCAASGRIFGVYAMGWYTQAPGKERELVAAINYSGTRTYYADSVKGRFTISRDNGKNTVYLQMNSLKPEDSAVYYCGARRGSYSVTEYWGQGTQVNVSS	high polyreactivity
LVHLQESGGGLVLAGGGLRLSCAASGNIFTYVIMGWYRQPAGKERELVAAITYGTITNYADSVKGPFTISRDNAKNTVYLQMNCLKPEDTAVYHCAVQSTRIVPRHYYCGQGTQVTVSS	high polyreactivity
LVQHVESGGGIVQAGGSLRLTCAASGSIFASYAMGWYRLAPGKEREFVAAISRRSGSTYYSDSVKGRFTISRDYAKNTVYLQLKSLKPEDTAVYDCAGALYYGYDHYNYWGQGTQVTVSS	high polyreactivity
LVQHVESGGGLVKAGGSLRLTCSASGITFARYAMGWYRQAPGNERELVAAISRSVGSTYADSVKGRFTTSRDNAKNTVYLKMNSLKPEDTAVYYCHARYKSRLYPRYDYWGQGTQVTVSS	high polyreactivity

Sequence	polyreactivity (PSR sort gate)
LVQLLESGGGLVQAGGSLRLSCAASGRIFTGYALGWDRQAPGKDRELVASITWRGASTYYADSVKGRFTISRDNAKTTVFLQKNCLNPEDTAVDYCNVGASARKAYEYWGQGTQVTVSS	high polyreactivity
LVQLQESAGGLVQAGGSLRLSCAASGSISVTRAMCWYRQAPGNERELVASTTGGSNNADSVNGRFTISRDNAKNTVYLQMNSLKPEDTAVYYCAAAVGVGRSGGTYDYWGQGTQVTVSS	low polyreactivity
LVQLQESGGGLVQAGGSLRLSCAASGTISQGGYMGWYRQAPGKERELVASINVGGSTNYADSVKGRFTISRDNAKNTVYLQMNSLKPEDNAVYYCAVWGRNRLQLSYWGQGTQVTVSS	low polyreactivity
LVQLVESGGGLVQAGGSLRLICAAYGSIFALNSLGWYSQAPGKERELVAAISRGDGTKYEHTVKGRFTISRDNAKTTVYLQMTSLKPEYTAVYYCAKDYWFRWRWPYNHWGLGTQVTVSS	low polyreactivity
LVQLVESGGGLVQAGGSLRLSCAASGRIFLKYAMGWYRQSPGKERELVAAISRRGASTYYADSVKGRFTISRDYGKNSVYLLMKSLKPDDTAVYYCNARTSSGMDYWGQGTQVTVSS	high polyreactivity
LVQLVESGGGLVQAGGSLRLSCAASGSIFRRYAMGWYRQAPGKERELVAAISRNSGRTYYADSVKGRFTISRDNAKNTVYLQTNSLKPEDTAVYYCAKLTLSSRWYYIYDYWGQGTQVTVSS	high polyreactivity
PVQLQESGGGLVQAGGSLRLSCAASGNIFDADIMGWYRQAPGKERELVACIADGGSTNYADSVKGRFTISRDNAKNTVYLQMNSLKPEDTAVYYCAAIAYPYIPNCFDYDSDYFFRGQGTQVTVSS	low polyreactivity
PVQLVESGGGLVEAGGSLLLSCAASGSTFREYTMGWYRQAPGKERELVAAITNSGGSTYYADSVKGRFTISRDIAKYTVYLQMNSLKPDDTSVYYFAAEVGIVDYDYWGQGTKVTVSS	low polyreactivity
PVQLVESGGGLVQAGGRLRLSCASSGLTFYYYAMGWYLQSPGKESELVAALSRSGGSTYYADSVKGRFTISRDNAQNTVYLQMISLKPEDTAVYYCAAREPYEVLLYYYEDYYWGQGTQVTVSS	high polyreactivity
PVQLVESGGGLVQAGGSLRLSCAASGFTFDENAMGWYRQAPGITYSGASTYYADSVKGPYTISRANAQNTVYLQMNSLKPEDTAVYYCAAEVVAQMNYWGQGTQVTVSS	low polyreactivity
PVQLVESGGGLVQAGGSLRLSCAASGITFYRYMGWYRQAPGKERELVASITGRGGSTYYADSVKGRFTISRDNAKNTVYLQMNSLKPEDTAVYYCAAVFPTKSSTWYDFWGEGTQVTVSS	high polyreactivity
PVQLVESGGGLVQAGGSLRLSCAASGRTVGYAMGWYRQSPWKERELVARINRTTGSTYYADSVKGRFTISRDNAKNTVYLQMKRLKPEDTAVYYCNAKSYYYSRWSRYYCTGYYYWGQGTQVTVSS	high polyreactivity
PVQLVESGGGLVQAGGSLRLSCAASGSIFTAYDMGWYRQAPGKERELVAAINVSAGTTYYADSVKGRFTISRDNAKKTVYLQMISLIPEDTAVYYCAARDISLNAVGLPKEYNRDYWGQGTQVTVSS	low polyreactivity
PVQLVESGGGLVQAGGSLRLSCAASGSTFKRYAMGWYRQAPGKERELVAAISSGGTTYYADSVTGRFTISRDNAKNTVYLQMISLKPEDSAVYDCIARKYGWDQRILIYDYWGQGTQVTVSS	high polyreactivity
PVQLVESGGGLVQAGGSLRLSCAASGSTFLYSAMGWYRQAPGKERELVAGISAAGGSSYYADAVKGRFTISRDNAKNTVYIQMNSLKPEDTAVYYCNATRVVIRHSYDYWGQGTQVTVSS	high polyreactivity
PVQLVESGGGLVQAGGSLRLSCAASGSTIPSYAMGWYRQAPGKERELVASITYSDGTTRYADSVKGRFTISRDNAKNTVYLQMNSLKPEDTAVYYCNAVYYREGMDYWGQGTQVTVSS	low polyreactivity
PVQLVESGGGLVQAGGSLRLSCAASGTIFFSNAMGWYRQAPGKEREFVATITSSGVGTYYADSVKGRFTISRDNAKNTVYLQMNSLTPEDTAVYYCAADLTISYSQEYYYWGQGTQVTVSS	low polyreactivity
PVQLVESGGGLVQAGGSLSLICAASGRIFYMYAMRCYRPAPAKERELVAAITWSGGSTTYADSVKGRFTISRDNAKNTVYLQMNSLKPEDTSVYYCNAEGWIFPSFSPMDYWGQGTQVTVSS	low polyreactivity
PVQLVESGGGLVQAGGSLSLTCAASGIIFPVYAMGWYIQAPGKERELVAAITYSGDRTYYADSVKGRFTISRDNAKYTVYLQMNSLKPEDTAVDYFNARFGVWPYFYNEDDYLGQGTQVTVSS	low polyreactivity
PVQLVESGGGLVQAGVSLRLSGAASGFIFYYYAMGWYSQAPGKEREFVAAISQSVGSTYYADSVKGRFTISRDNANNTVYLQMNSLKPADTAVYYCNARGWIPARGWDDYYWGQGTQVTVSS	high polyreactivity

— the nanobody polyreactivity screen of Harvey et al. (2022)
